Measurements as given in patent US20200140512A1 (published 2020).

T1: Cyno PD-1
T1 chain: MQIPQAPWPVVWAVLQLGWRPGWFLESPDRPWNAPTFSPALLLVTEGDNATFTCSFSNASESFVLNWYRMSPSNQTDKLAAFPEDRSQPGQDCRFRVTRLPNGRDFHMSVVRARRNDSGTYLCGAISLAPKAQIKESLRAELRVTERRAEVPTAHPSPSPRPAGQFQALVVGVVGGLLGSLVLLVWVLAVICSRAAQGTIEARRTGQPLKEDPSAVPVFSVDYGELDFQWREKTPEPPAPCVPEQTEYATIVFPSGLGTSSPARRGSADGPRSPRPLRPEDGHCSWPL

B1: XENP28519 (bivalent mAb based on humanized mAb A) (antibody, V domains shown)
VH: QVQLQESGPGLVKPSQTLSLTCTVSGHSITSDYAWNWIRQPPGKKLEWIGYISYSGYTTYNPSLKSRVTISRDTSKNQFSLKLSSVTAADTAVYFCARDLDYGPWFAYWGQGTLVTVSS
VL: DIQMTQSPSSLSASVGDRVTITCRASENIHNYLAWYQQKPGKSPKLLVYNVKTLADGVPSRFSGSGSGTDYTLTISSLQPEDFATYYCQHFWSSPWTFGGGTKVEIKR
B2: XENP28536 (bivalent mAb based on humanized mAb C, mAb C[PD-1]_H1L1) (antibody, V domains shown)
VH: EVQLVESGGGLVQPGGSLRLSCAASGFTFSSFGMHWVRQAPGKGLEWVSYISSGSSIIYYADSVKGRFTISRDNAKNSLYLQMNSLRAEDTAVYYCARGGRLVWSPDYWGQGTLVTVSS
VL: DIVMTQSPDSLAVSLGERATINCKSSQSLLNSGNQKNYLTWYQQKPGQPPKLLIYWASTRESGVPDRFTGSGSGTDFTLTISSLQAEDVAVYYCQNDYSYPFTFGSGTKLEIK
B3: XENP28537 (humanized variant of anti-PD-1 mAb C, bivalent human IgG1) (antibody, V domains shown)
VH: EVQLVESGGGLVQPGGSLRLSCAASGFTFSSFGMHWVRQAPGKGLEWVSYISSGSSIIYYADSVKGRFTISRDNAKNSLYLQMNSLRAEDTAVYYCARGGRLVWSPDYWGQGTLVTVSS
VL: DIVMTQSPLSLPVTPGEPASISCRSSQSLLNSGNQKNYLTWYLQKPGQPPQLLIYWASTRESGVPDRFTGSGSGTDFTLKISRVEAEDVGVYYCQNDYSYPFTFGSGTKLEIKR

Key:
[1] = target: human PD-1-His (human, UniProt Q15116 25-167); test: Octet
[2] = target: T1, Cyno PD-1; test: Octet

Chain of human PD-1-His (Q15116 25-167): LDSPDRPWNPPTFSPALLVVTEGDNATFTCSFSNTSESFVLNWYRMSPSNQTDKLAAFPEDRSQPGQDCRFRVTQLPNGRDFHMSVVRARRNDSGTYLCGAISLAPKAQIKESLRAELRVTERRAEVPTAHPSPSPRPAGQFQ

Row | Binder | Kd [1] [nM] | Kd [2] [nM]
1 | B1 | 11.9 | 
2 | B2 | 24 | 35.8
3 | B3 |  | 42
